# Patent US7867500B2, “Cofactor that modulates steroid receptor activities” (The United States of America as represented by the …, priority 2004, dated 2011)
# B1: STAMP(834-956): STAMP fragment amino acids 834-956, N-terminal portion of the RID (protein)
# chain: GDHPETIMEEVKIKPPKQQQTTEIHSDKLSRFTTSAEKEAKLVYSNSSSGPTATLQKIPNTHLSSVTTSDLSPGPCHHSSLSQIPSAIPSMPHQPTILLNTVSASASPCLHPGAQNIPSPTGL
# modifications: GAL4 DBD fusion
# notes: STAMP fragment amino acids 834-956, N-terminal portion of the RID
# B2: STAMP623C: STAMP fragment amino acids 623 to 1277, CID and RID but no TTL domain (protein)
# chain: ENTPKENSMKVREWNNKGGHCCKLETQELEPKFNLMQILQDNGNLSKMQARIAFSAYLQHVQIRLMKDSGGQTFSASWAAKEDEQMELVVRFLKRASNNLQHSLRMVLPSRRLALLERRRILAHQLGDFIIVYNKETEQMAEKKSKKKVEEEEEDGVNMENFQEFIRQASEAELEEVLTFYTQKNKSASVFLGTHSKISKNNNNYSDSGAKGDHPETIMEEVKIKPPKQQQTTEIHSDKLSRFTTSAEKEAKLVYSNSSSGPTATLQKIPNTHLSSVTTSDLSPGPCHHSSLSQIPSAIPSMPHQPTILLNTVSASASPCLHPGAQNIPSPTGLPRCRSGSHTIGPFSSFQSAAHIYSQKLSRPSSAKAGSCYLNKHHSGIAKTQKEGEDASLYSKRYNQSMVTAELQRLAEKQAARQYSPSSHINLLTQQVTNLNLATGIINRSSASAPPTLRPIISPSGPTWSTQSDPQAPENHSSSPGSRSLQTGGFAWEGEVENNVYSQATGVVPQHKYHPTAGSYQLQFALQQLEQQKLQSRQLLDQSRARHQAIFGSQTLPNSNLWTMNNGAGCRISSATASGQKPTTLPQKVVPPPSSCASLVPKPPPNHEQVLRRATSQKASKGSSAEGQLNGLQSSLNPAASVPITSSTDPAHTKI
# B3: 1127C: STAMP fragment amino acids 1127 to 1277, C-terminal part of the RID (protein)
# chain: TGVVPQHKYHPTAGSYQLQFALQQLEQQKLQSRQLLDQSRARHQAIFGSQTLPNSNLWTMNNGAGCRISSATASGQKPTTLPQKVVPPPSSCASLVPKPPPNHEQVLRRATSQKASKGSSAEGQLNGLQSSLNPAASVPITSSTDPAHTKI
# modifications: GAL4 DBD fusion
# notes: STAMP fragment amino acids 1127 to 1277, C-terminal part of the RID
# B4: 956-1127: STAMP fragment amino acids 956 to 1127, portion of the RID region (protein)
# chain: LPRCRSGSHTIGPFSSFQSAAHIYSQKLSRPSSAKAGSCYLNKHHSGIAKTQKEGEDASLYSKRYNQSMVTAELQRLAEKQAARQYSPSSHINLLTQQVTNLNLATGIINRSSASAPPTLRPIISPSGPTWSTQSDPQAPENHSSSPGSRSLQTGGFAWEGEVENNVYSQAT
# modifications: GAL4 DBD fusion
# notes: STAMP fragment amino acids 956 to 1127, portion of the RID region
# B5: GAL/N834: STAMP fragment amino acids 1-834, TTL domain and CID region (protein)
# chain: MARDLEETASSSEDEEVISQEDHPCIMWTGGCRRIPVLVFHADAILTKDNNIRVIGERYHLSYKIVRTDSRLVRSILTAHGFHEVHPSSTDYNLMWTGSHLKPFLLRTLSEAQKVNHFPRSYELTRKDRLYKNIIRMQHTHGFKVFHILPQTFLLPAEYAEFCNSYSKDRGPWIVKPVASSRGRGVYLINNPNQISLEENILVSRYINNPLLIDDFKFDVRLYVLVTSYDPLVIYLYEEGLARFATVRYDQGAKNIRNQFMHLTNYSVNKKSGDYVSCDDPEVEDYGNKWSMSAMLRYLKQEGRDTTALMAHVEDLIIKTIISAELAIATACKTFVPHRSSCFELYGFDVLIDSTLKPWLLEVNLSPSLACDAPLDLKIKASMISDMFTVVGFVCQDPAQRASTRPIYPTFESSRRNPFQKPQRCRPLSASDAEMKNLVGSAREKGPGKLGGSVLGLSMEEIKVLRRVKEENDRRGGFIRIFPTSETWEIYGSYLEHKTSMNYMLATRLFQDRMTADGAPELKIESLNSKAKLHAALYERKLLSLEVRKRRRRSSRLRAMRPKYPVITQPAEMNVKTETESEEEEEVALDNEDEEQEASQEESAGFLRENQAKYTPSLTALVENTPKENSMKVREWNNKGGHCCKLETQELEPKFNLMQILQDNGNLSKMQARIAFSAYLQHVQIRLMKDSGGQTFSASWAAKEDEQMELVVRFLKRASNNLQHSLRMVLPSRRLALLERRRILAHQLGDFIIVYNKETEQMAEKKSKKKVEEEEEDGVNMENFQEFIRQASEAELEEVLTFYTQKNKSASVFLGTHSKISKNNNNYSDSGAKG
# modifications: GAL4 DBD fusion
# notes: STAMP fragment amino acids 1-834, TTL domain and CID region
# Assays:
# [1] = test system: GR repression of an AP-1 induced gene; test: GR-mediated repression of PMA-induced AP-1/Luc reporter in U2OS.rGR cells; assay type: cell-based; details: for fold repression of PMA-induced AP-1 expression by Dex-bound GR: 25 μM PMA ± 0.1 μM Dex, TIF2 20 ng, STAMP 100 ng plasmid
# Procedure: FIG. 5A-F illustrate STAMP modulation of GR-mediated repression. […] U2OS.rGR cells were transiently transfected with ±TIF2 (20 ng)±STAMP (100 ng) plasmids, AP-1/Luc reporter (20 ng), and Renilla control (10 ng) plasmid. The cells were induced with ethanol (EtOH) or 25 μM PMA±0.1 μM Dex. […] The average values±S.E.M. of four experiments are plotted. The numbers in parentheses above the bars labeled “PMA+Dex” represent the average fold repression caused by Dex± the various factors.
# FIG. 5B illustrates that functional TIF2 is needed for optimal STAMP activity. U2OS.rGR cells were transiently transfected and processed as described for FIG. 5A but less STAMP (50 ng) was used and two concentrations of TIF2 or TIF2m123 (10 and 20 ng) were employed. The average values±S.E.M. of 4-5 experiments are plotted. An asterisk indicates a significant difference (P≦0.031) between samples containing equal amounts of TIF2 and TIF2m123.
# Rogatsky et al. have reported that TIF2 augments GR repression of an AP-1 induced gene. […] The TIF2 domain identified as having TIF2 activity in GR repression was the same as used to isolate STAMP. In order to determine if STAMP was active in GR-mediated gene repression as well as induction, the ability of STAMP to increase the repressive activity of GR in the AP-1 responsive whole cell bioassay system was assessed using U2OS.rGR cells.
# [2] = target: T1, glucocorticoid receptor (GR) (Rattus norvegicus, UniProt P06536); test: GR-mediated induction of GREtkLUC reporter, transient transfection of CV-1 cells
# T1 sequence (P06536 1-795): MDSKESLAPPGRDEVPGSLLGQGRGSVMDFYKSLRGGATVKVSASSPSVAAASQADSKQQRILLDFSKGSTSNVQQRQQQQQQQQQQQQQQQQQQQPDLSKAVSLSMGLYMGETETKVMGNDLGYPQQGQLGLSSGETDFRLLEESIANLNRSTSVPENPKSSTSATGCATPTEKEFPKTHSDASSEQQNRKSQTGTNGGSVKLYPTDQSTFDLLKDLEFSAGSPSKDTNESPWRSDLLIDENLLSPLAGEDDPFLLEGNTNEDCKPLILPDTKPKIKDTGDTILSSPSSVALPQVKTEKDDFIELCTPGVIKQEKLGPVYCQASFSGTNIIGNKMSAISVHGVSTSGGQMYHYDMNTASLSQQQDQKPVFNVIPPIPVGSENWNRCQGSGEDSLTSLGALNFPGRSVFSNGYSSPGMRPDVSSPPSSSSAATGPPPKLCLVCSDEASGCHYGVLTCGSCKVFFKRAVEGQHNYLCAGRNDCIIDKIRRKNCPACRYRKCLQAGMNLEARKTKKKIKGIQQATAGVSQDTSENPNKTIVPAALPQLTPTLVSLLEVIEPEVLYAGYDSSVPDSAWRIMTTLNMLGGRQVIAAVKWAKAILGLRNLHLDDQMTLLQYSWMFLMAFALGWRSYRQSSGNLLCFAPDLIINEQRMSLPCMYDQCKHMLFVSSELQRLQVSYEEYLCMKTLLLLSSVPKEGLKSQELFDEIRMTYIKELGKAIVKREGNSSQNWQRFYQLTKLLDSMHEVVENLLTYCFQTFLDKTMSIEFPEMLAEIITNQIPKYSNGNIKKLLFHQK
# Procedure: Triplicate samples of CV-1 cells were transiently transfected with GR (6 ng)±TIF2 (20 ng)±STAMP (160 ng) plasmids, GREtkLUC reporter, and Renilla control plasmid. […] FIG. 4B illustrates the fold changes in GR induction parameters by STAMP and TIF2. […] The fold-increase in each parameter was determined as follows: for EC50s, fold increase=[EC50]GR/[EC50]GR+factor; for partial agonist activity and fold Dex induction, fold increase=activityGR+factor/activityGR). The average fold increases were then plotted±S.E.M (n=4).
# CV-1 cells were transiently transfected with GR (6 ng)±TIF2 (20 ng)±STAMP (160 ng) plasmids, GREtkLUC reporter, and Renilla control plasmid, and induced with ethanol± the indicated concentrations of Dex.
# Tests were run to determine whether exogenous STAMP can modulate the EC50 of glucocorticoids and the partial agonist activity of antiglucocorticoids in the transient transfection assays where GR induced gene expression from a GREtkLUC reporter.
# GR = target: T2, GR (Rattus norvegicus, UniProt P06536); test: Mammalian two-hybrid assay in CV-1 cells with VP16/GR; assay type: cell-based; details: VP16/GR ± 1 μM Dex
# T2 construct: plus VP16 fused to the indicated full length receptors; expressed in transfected cells; host or cells: CV-1
# T2 sequence (P06536 1-795): T1 sequence (P06536 1-795)
# Excerpt: FIGS. 6A and 6B illustrate the domains of STAMP that interact with TIF2.4 (FIG. 6A) and GR (FIG. 6B) in the mammalian two-hybrid assay. […] These CV-1 cells were also transfected with GAL fused to the indicated segments of STAMP along with the FRLuc reporter and Renilla control plasmids. After determining the relative luciferase activities as described in FIG. 2B and 2C, the average values±S.E.M. from 2-5 experiments were plotted. The average fold increase for VP16/TIF2.4 with GAL/STAMP(623-834) in FIG. 6A was 11.0±3.0 (SEM, n=5) above the VP16 control. The values in parentheses above the data bars in FIG. 6B indicate the fold increased interaction ±1 μM Dex.
# These assays were conducted as described (He et al., 2002). In particular, the recommended procedure for the Mammalian Matchmaker two-hybrid assay kit (Clontech) was modified slightly by changing from a chloramphenicol acetyltransferase reporter to a Luciferase Reporter pFRLuc (Stratagene), which is under the control of five repeats of the upstream activating sequence for the binding of GAL4.
# [3] = in the presence of transfected GR and TIF2
molecule,measurement,setting,value
C[C@@H]1C[C@H]2[C@@H]3CCC4=CC(=O)C=C[C@]4(C)[C@@]3(F)[C@@H](O)C[C@]2(C)[C@@]1(O)C(=O)CO [dexamethasone],fold repression of PMA-induced AP-1 expression by Dex-bound GR,[1],about 5 fold
TIF2: glucocorticoid receptor coactivator transcription intermediary factor-2,fold repression of PMA-induced AP-1 expression by Dex-bound GR,[1],about 9 fold
same,fold induction by PMA,"[1]; 25 μM PMA, no Dex",unchanged
same,effect on GR dose-response curve and induction parameters,[2]; TIF2 alone (FIG. 4A1),"similar, small effect"
B1,interaction with GR,GR,substantial ligand-independent association
B2,"ability to increase the partial agonist activity of Dex-Mes, retained",[2]; [3],40%
same,"capacity of full length STAMP to increase the fold induction with Dex, retained",[2]; [3],85%
B3,interaction with GR,GR,largest agonist-induced changes
B4,interaction with GR,GR,largest agonist-induced changes
B5,interaction with GR,GR,relative inactivity
